Laboratory results: the domain aggregation screens of Martell et al. (2025)

Test: soluble fraction after stress (log2 fold change); higher = more stays soluble; pooled small domains, quantitative proteomics
Conditions: stress: 75 degC
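Note: 20 min heating vs room temperature control held 20 min.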

HMTDYVPTIGTKISKDFGSKGYFEGEVVSGPHNVTVEGDNMVVWKVQYEDGDREEMTASEIAHWKA
soluble fraction (log2): -0.104

HMTEAIDVPNLVGQNYSDVKSNSSYKFNWDIINVYDSGKPEGEIIKQEPEAGSKKVKENAVITLTVN
soluble fraction (log2): 0.538

HMTEDNDLETIAYDILKERNLNNININVKNGVLNIYGKTETLKEKREIEKILSSLNVSKINNLIKI
soluble fraction (log2): 0.258

HMTEDQDWAIFKQKLKAQTEIDLDLYKEPQMKHRIKNLIQNAGFDSYVQYFDYVYLNQDRLAAFLENLTV
soluble fraction (log2): -0.535

HMTEEELLERLDAVITEYKGKPGALIPVLQLAQGIFGYLPEVALKHIARQLDKPYSEVAGVVSFYSFFTT
soluble fraction (log2): 0.291

HMTEFDVIMKSFGSEKIKVIKEVRAITGLGLAEAKALVEGVPAKIKEQVSKDDAEALKKQLEAVGAEVEL
soluble fraction (log2): -0.0848

HMTEFWTGPITTVTKANFADWTLDTNQDRITANVWLTRADSKGLFNITPGKETAFDIVDYLSPLDTEWA
soluble fraction (log2): -0.209

HMTEGDRLARRILRLVRNKPNGYPEVELMKATVLDWNHFQRSISSLEMAGILERRDPGDGTPPVWVEKR
soluble fraction (log2): -1.53

HMTEKIEWYKEVLDLEPNSKIFFPLAKMLEKEGELEEARRVLAEGVSRHEEFLEARLFYISVLSRL
soluble fraction (log2): -0.301

HMTENLELLATGSLWTEPDGSGKIISYLIPGLRVKKLETNGIFYKIQLQNGLIGWADQSLFTIAEPK
soluble fraction (log2): -1.62

HMTENQKNIDLIKIVSLLVHAAKIDENYTNKEKELIINFINNFSKENKQNIKSSEILEEAEKYEK
soluble fraction (log2): 0.132

HMTEPKRIVDHWQPSDDVYDILRMSHIDLDFARSLLPEFIVYWKDSSQTHTSWNSKFLQHAKYHWAKRHQL
soluble fraction (log2): -2.27

HMTEPLTKREKEVLLLLPRGLTAKAMASELFLTEATIKSHLAAIFRKFKVVNRTQAIAIAVESKILT
soluble fraction (log2): -2.41

HMTESLVITVDPALHGLRLDRGLADALPDRSRSEVQRWIKEGRVQLHGAPAKPSLKLAAGDIVTIALPEE
soluble fraction (log2): 0.442

HMTESSTYFEKIGTEISQFKSIPKNIDVIIIEKLIYSGIIKKVDNEENSRVYYILTRKGRYFWKRYVLS
soluble fraction (log2): 0.16

HMTETFVLNLRQPIAAAPVLPGYRVARTDEQTLEVEVSKDQNLNEIFTALSALGVEVLSMRNK
soluble fraction (log2): -0.0438

HMTFAEADAQYEVIKQQYLAGALDEEQFDEQLHRLMVLDDGGLWWAKSRENGSWHYYDPDREDWIAATP
soluble fraction (log2): -0.394

HMTFEAKKGYINADMSVNVRETASTSATVIITLNPNTEVKVVGEENDFYKIEYKEYKGYVAKRLISDSQVQ
soluble fraction (log2): -0.747

HMTFPTEAKLTGDKVFVRSGPSTQSQRLTNLAINSVVTVLAREMGDMQYPWYKVRYSDGEGWVYGQYVEAI
soluble fraction (log2): -1.08

HMTFTQFAESHGVIIKSLKASDKIQRGPTVAHPKSDNGAWLWDGNRGGVMAWDGDGQWYWFK
soluble fraction (log2): -1.73

HMTGEERRMNTADLYRRRGMELFKRKIYVDAIDSLKVSLEYEDNATTRYYLDLATKRYQDLKIS
soluble fraction (log2): -2.13

HMTGETWAERSRALAAAGLIVMGQEAKNKIEDLPSLSPLIEAAAASETRLLTGQIIDELLAFV
soluble fraction (log2): -0.589

HMTGIELLSHREHQVYDLLTQGRTVTEIGAQLNLAPNTVSTYRARILEKTGTKNDVELALYAQRH
soluble fraction (log2): -0.22

HMTGKASEIAALLEQRIAAGDYPAGSKLPSERELAASFHVSRNTIRDAIALLAARKIVSTKWGAGTVVLG
soluble fraction (log2): -0.967

HMTGLRETIPAALDGERLDRVVALLGDVSRSRASAALEAERVTLDGEVVTLRSHRVREGEELTVAGFE
soluble fraction (log2): 0.417

HMTGLSAQILAKLRDNHGVLPVSDKSDPAVISNLFGVSKGNFKKAIGGLYKEGQIVIHADRIEL
soluble fraction (log2): -0.0972

HMTGLSFEEKDLLGNALKLLDETERRIVILHATSGLKHREIAKQLDIPLPTVLSKYTRAIKKLKKHME
soluble fraction (log2): -1.14

HMTGPSYTTRRVEAAETMMEFLRTFPQAAPFIGDLYVKAQDWPLGEEIGDRLKKMLPPQLQE
soluble fraction (log2): -0.698

HMTGQVASMVERLAQRLKDQPQDAEGWAMLARSYSVLGRHPEALQAYEKALALRKDDANLLADYADSLA
soluble fraction (log2): -0.23

HMTGRHEEAIQELKRTLELHPQKPKIFLLLGVSYLRLNNLKKAVEAFNTVLLLQPKNQKALTMLKEIKKR
soluble fraction (log2): -0.178

HMTGSLLVEVQGRPDADRLLGQALVDAGLTARPAGGALIEVEVRDETTPDVVRDLTVDLGLGLVRMQERH
soluble fraction (log2): -0.548

HMTGSLRIKHKTYYMLFSWKDESGQWRQKSESTGIPERGGKRKAQEMLNTRLEELQLQSTASL
soluble fraction (log2): -3.87

HMTGSLRVTSSPSGAEIYVDEIYRGYTPLTIGSLSTGRHEVRLHLSGYQDYTRTVEIESGSQSSFSVTLT
soluble fraction (log2): -1.46

HMTGSTSVAQVSTPSGSLNLRAYASTSARVLLQIPEYAFVTVYNRGATWSYVSYNGVSGYVMSVYLSFGG
soluble fraction (log2): -2.31

HMTGTVKVNSLNVYKSASLDSEVKDTLVLNTKVTIAENGQVTDGIYVWGRLQSGEGYVQMNNLTL
soluble fraction (log2): -0.418

HMTHRRLELTLDAIDERLDRALTAAVPELSRMQWQRLIREGLVTVDGERARPSYRIQGGETLVALVPEV
soluble fraction (log2): -0.448

HMTIAEGLIFRFTEPFKPIDQYTYYIMGDNKVEQIPNFKTLEVMLAQRNQNYLSVRVIEKSQLDDILKEF
soluble fraction (log2): -4.16

HMTIDETKKQQVKDGLKDIPGVTVEFVGDKAVLKGAVTDANRVKIMQIVMAAKVLSDASGLTSK
soluble fraction (log2): -0.422

HMTIDTSNDLLNQITEATSKGPISILELKDQLNVNASDIEGELRTLIDQHLVFLKDGMLQVIPFD
soluble fraction (log2): 0.797

HMTIEEMAIENINFSTQLLYKAMKYNGVNTVGDLLEKARSKKDLLTMAYIGNKEAEEIIEKLSELGITI
soluble fraction (log2): -1.63

HMTIFGWQQDETGKWYRNADGTFYENGWKEIDGAQYYFDENGYVTTGWLELDGKDYYFDEEGKYDSTKVR
soluble fraction (log2): -0.445

HMTIGPALAIGGNKVEMTQQGKIQVTNPQGKIKTLSQDEFKKQLVKNADKIEAGQDFEFKKD
soluble fraction (log2): 0.275

HMTIKLFPNPSTDFIRVSELSAKENYKIYTILGSEIKRGSVSNNETIDIRNLNSGVYLLKFDNGTTKKIVK
soluble fraction (log2): -1

HMTIKTAFPAEDLAKPDNFKSLLYYFGLLTIRGTKWGSTLLAIPNLTVREQLYSYLVEAYRSADL
soluble fraction (log2): 0.331

HMTILKEGMSGPEVERLQDALKRHGFDPGRVDGQFGPGTEAAILAFQKSEGLRADGVAGPKTQQALGLE
soluble fraction (log2): 0.121

HMTIRLKELRKQKGNTQAEVAKILGTNQSQYGKYENERTQLSLDNAKILSDYFGVSVPYLLGLDDNP
soluble fraction (log2): -0.361

HMTISDTAYQAFLEQLGVGMVVEHKRFGEGVITGMPKGKIRITFEEGTKSFQARALAESGMLK
soluble fraction (log2): -0.875

HMTISIAEQIFEQLEREILSGAYPRGELLTETKLSEKLGVSRTPIREALRRLDQEHIIKMTTKGAFVLGI
soluble fraction (log2): -2.4

HMTITIGNSDGGYMKMGADGFEVRFSGSDGGNHYAKMYYNNDGWARLTLGSYGEEKARIDSDGMIQTR
soluble fraction (log2): 0.108

HMTKEAIAQKLRIARQESGLTQKDVSAKIGRPQQTIASWEVGRSQPDADTLYSLLLLYKVSPNTFFEYD
soluble fraction (log2): -1.18

HMTKEEIVVNWLPRYTKRNLEDFGEYILLTNFNKYVEIFAEKFNVPILGRDANMISASAEGITIIN
soluble fraction (log2): -0.409

HMTKEEREKREKYEKLMKKAEELTAAKNHREVINVLGQAKAYATAAQLKEIEEKIKAATSEMNK
soluble fraction (log2): 0.326

HMTKEGVNISITADGVQLSTESPNRVSIFNVNGTKVWEGIAPANVSLQKGVYILQTANGNTKFV
soluble fraction (log2): 0.597

HMTKLLITNYERNVLINSYLLKNTPELDDIRRLLVHNKHISENDVSTEMARRIKKHKADWLRVT
soluble fraction (log2): -3.4

HMTKLTPLEVNLYAKKLANDPEFGSKHIEPGESFSQAEERLRVQLSQQEYVQKYSKYLKKLKASA
soluble fraction (log2): -0.198
